Measurements taken from article PMC9482650, “Quantitative fragmentomics allow affinity mapping of interactomes” (Nature Communications, 2022).

T1: APBA1_2, Q02410
T1 sequence (Q02410 742-832, limits assumed, looked up): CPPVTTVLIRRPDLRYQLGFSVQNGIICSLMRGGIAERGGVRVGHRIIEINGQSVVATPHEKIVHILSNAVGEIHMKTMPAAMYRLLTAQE

T2: CARD11, Q9BXL7
T2 sequence (Q9BXL7 662-765, limits assumed, looked up): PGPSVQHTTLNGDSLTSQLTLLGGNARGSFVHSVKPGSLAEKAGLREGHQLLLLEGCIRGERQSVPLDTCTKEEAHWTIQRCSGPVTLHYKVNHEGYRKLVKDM

T3: DFNB31_3, Q9P202
T3 sequence (Q9P202 811-907, limits assumed, looked up): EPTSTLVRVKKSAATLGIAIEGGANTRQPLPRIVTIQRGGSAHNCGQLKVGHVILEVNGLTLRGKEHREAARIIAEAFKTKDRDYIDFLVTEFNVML

T4: GRIP1_2, Q9Y3R0
T4 sequence (Q9Y3R0 145-248, limits assumed, looked up): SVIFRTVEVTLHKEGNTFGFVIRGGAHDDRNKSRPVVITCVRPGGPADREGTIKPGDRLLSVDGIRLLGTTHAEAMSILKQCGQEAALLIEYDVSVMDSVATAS

T5: GRIP1_3, Q9Y3R0
T5 sequence (Q9Y3R0 247-346, limits assumed, looked up): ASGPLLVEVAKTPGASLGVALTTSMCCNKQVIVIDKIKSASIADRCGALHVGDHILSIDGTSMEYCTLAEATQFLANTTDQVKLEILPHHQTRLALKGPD

T6: GRIP1_5, Q9Y3R0
T6 sequence (Q9Y3R0 568-668, limits assumed, looked up): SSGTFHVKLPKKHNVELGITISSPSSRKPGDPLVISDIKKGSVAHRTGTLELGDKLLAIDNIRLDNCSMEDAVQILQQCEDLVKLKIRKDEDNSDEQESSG

T7: LIN7C, Q9NUP9
T7 sequence (Q9NUP9 88-185, limits assumed, looked up): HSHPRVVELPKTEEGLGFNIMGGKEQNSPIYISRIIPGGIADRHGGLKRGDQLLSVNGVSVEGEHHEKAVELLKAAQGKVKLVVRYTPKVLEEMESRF

T8: MPP7, Q5T2T1
T8 sequence (Q5T2T1 134-230, limits assumed, looked up): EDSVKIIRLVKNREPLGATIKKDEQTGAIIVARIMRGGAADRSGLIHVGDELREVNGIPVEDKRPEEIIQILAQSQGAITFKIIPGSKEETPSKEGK

T9: SYNJ2BP, P57105
T9 sequence (P57105 8-110, limits assumed, looked up): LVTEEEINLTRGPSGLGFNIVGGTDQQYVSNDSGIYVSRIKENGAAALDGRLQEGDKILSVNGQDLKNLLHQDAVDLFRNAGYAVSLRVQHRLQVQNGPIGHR

T10: TJP3_3, O95049
T10 sequence (O95049 375-456, limits assumed, looked up): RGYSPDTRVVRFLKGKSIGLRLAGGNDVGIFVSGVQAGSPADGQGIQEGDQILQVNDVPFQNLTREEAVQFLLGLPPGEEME


target: AHNAK1, Q09666; test: holdup assay; design: key: below the threshold = too weak to quantify, mostly under pKd 3.1 to 4; conditions: plain residues with an end cap or a label only (N-terminal biotin on a linker: ado-ado)
Sequence (Q09666 4-100): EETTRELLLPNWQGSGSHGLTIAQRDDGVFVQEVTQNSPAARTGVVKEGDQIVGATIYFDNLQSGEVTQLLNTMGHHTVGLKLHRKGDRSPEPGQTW

| Binder | pKd |
| --- | --- |
| LPHGHSTTRV [NLGN4X, Q8N0W4] | below the threshold |
| VRNLPESEEL [MYOZ3, Q8TDC0] | below the threshold |

target: T1, APBA1_2, Q02410; test: holdup assay; design: key: below the threshold = too weak to quantify, mostly under pKd 3.1 to 4; conditions: plain residues with an end cap or a label only (N-terminal biotin on a linker: ado-ado)

| Binder | pKd |
| --- | --- |
| LPHGHSTTRV [NLGN4X, Q8N0W4] | 3.54 |
| VRNLPESEEL [MYOZ3, Q8TDC0] | below the threshold |

target: T2, CARD11, Q9BXL7; test: holdup assay; design: key: below the threshold = too weak to quantify, mostly under pKd 3.1 to 4; conditions: plain residues with an end cap or a label only (N-terminal biotin on a linker: ado-ado)

| Binder | pKd |
| --- | --- |
| LPHGHSTTRV [NLGN4X, Q8N0W4] | below the threshold |
| VRNLPESEEL [MYOZ3, Q8TDC0] | below the threshold |

target: T3, DFNB31_3, Q9P202; test: holdup assay; design: key: below the threshold = too weak to quantify, mostly under pKd 3.1 to 4; conditions: plain residues with an end cap or a label only (N-terminal biotin on a linker: ado-ado)

| Binder | pKd |
| --- | --- |
| LPHGHSTTRV [NLGN4X, Q8N0W4] | 3.96 |
| VRNLPESEEL [MYOZ3, Q8TDC0] | below the threshold |

target: DLG1_3, Q12959; test: holdup assay; design: key: below the threshold = too weak to quantify, mostly under pKd 3.1 to 4; conditions: plain residues with an end cap or a label only (N-terminal biotin on a linker: ado-ado)
Sequence (Q12959 457-571): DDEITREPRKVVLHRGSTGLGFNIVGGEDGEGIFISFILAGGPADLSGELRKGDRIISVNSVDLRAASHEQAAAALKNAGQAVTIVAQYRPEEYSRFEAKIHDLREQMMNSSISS

| Binder | pKd |
| --- | --- |
| LPHGHSTTRV [NLGN4X, Q8N0W4] | 4.24 |
| VRNLPESEEL [MYOZ3, Q8TDC0] | below the threshold |

target: DLG4_3, P78352; test: holdup assay; design: key: below the threshold = too weak to quantify, mostly under pKd 3.1 to 4; conditions: plain residues with an end cap or a label only (N-terminal biotin on a linker: ado-ado)
Sequence (P78352 306-403): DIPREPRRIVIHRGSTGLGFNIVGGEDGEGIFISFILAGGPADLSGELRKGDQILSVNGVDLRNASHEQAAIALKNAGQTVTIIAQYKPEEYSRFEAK

| Binder | pKd |
| --- | --- |
| LPHGHSTTRV [NLGN4X, Q8N0W4] | 4.04 |
| VRNLPESEEL [MYOZ3, Q8TDC0] | below the threshold |

target: FRMPD3, Q5JV73; test: holdup assay; design: key: below the threshold = too weak to quantify, mostly under pKd 3.1 to 4; conditions: plain residues with an end cap or a label only (N-terminal biotin on a linker: ado-ado)
Sequence (Q5JV73 12-100): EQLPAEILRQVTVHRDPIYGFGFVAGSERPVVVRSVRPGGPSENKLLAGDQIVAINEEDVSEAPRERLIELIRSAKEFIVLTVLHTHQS

| Binder | pKd |
| --- | --- |
| LPHGHSTTRV [NLGN4X, Q8N0W4] | below the threshold |
| VRNLPESEEL [MYOZ3, Q8TDC0] | below the threshold |

target: GORASP2, Q9H8Y8; test: holdup assay; design: key: below the threshold = too weak to quantify, mostly under pKd 3.1 to 4; conditions: plain residues with an end cap or a label only (N-terminal biotin on a linker: ado-ado)

| Binder | pKd |
| --- | --- |
| LPHGHSTTRV [NLGN4X, Q8N0W4] | 3.99 |
| VRNLPESEEL [MYOZ3, Q8TDC0] | below the threshold |

target: GRID2IP_1, A4D2P6; test: holdup assay; design: key: below the threshold = too weak to quantify, mostly under pKd 3.1 to 4; conditions: plain residues with an end cap or a label only (N-terminal biotin on a linker: ado-ado)
Sequence (A4D2P6 1-87): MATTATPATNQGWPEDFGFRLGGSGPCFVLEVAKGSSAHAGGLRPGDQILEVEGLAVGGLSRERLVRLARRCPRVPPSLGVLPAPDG

| Binder | pKd |
| --- | --- |
| LPHGHSTTRV [NLGN4X, Q8N0W4] | below the threshold |
| VRNLPESEEL [MYOZ3, Q8TDC0] | below the threshold |

target: T4, GRIP1_2, Q9Y3R0; test: holdup assay; design: key: below the threshold = too weak to quantify, mostly under pKd 3.1 to 4; conditions: plain residues with an end cap or a label only (N-terminal biotin on a linker: ado-ado)

| Binder | pKd |
| --- | --- |
| LPHGHSTTRV [NLGN4X, Q8N0W4] | below the threshold |
| VRNLPESEEL [MYOZ3, Q8TDC0] | below the threshold |

target: T5, GRIP1_3, Q9Y3R0; test: holdup assay; design: key: below the threshold = too weak to quantify, mostly under pKd 3.1 to 4; conditions: plain residues with an end cap or a label only (N-terminal biotin on a linker: ado-ado)

| Binder | pKd |
| --- | --- |
| LPHGHSTTRV [NLGN4X, Q8N0W4] | below the threshold |
| VRNLPESEEL [MYOZ3, Q8TDC0] | below the threshold |

target: T6, GRIP1_5, Q9Y3R0; test: holdup assay; design: key: below the threshold = too weak to quantify, mostly under pKd 3.1 to 4; conditions: plain residues with an end cap or a label only (N-terminal biotin on a linker: ado-ado)

| Binder | pKd |
| --- | --- |
| LPHGHSTTRV [NLGN4X, Q8N0W4] | below the threshold |
| VRNLPESEEL [MYOZ3, Q8TDC0] | below the threshold |

target: GRIP2_3, Q9C0E4; test: holdup assay; design: key: below the threshold = too weak to quantify, mostly under pKd 3.1 to 4; conditions: plain residues with an end cap or a label only (N-terminal biotin on a linker: ado-ado)
Sequence (Q9C0E4 238-339): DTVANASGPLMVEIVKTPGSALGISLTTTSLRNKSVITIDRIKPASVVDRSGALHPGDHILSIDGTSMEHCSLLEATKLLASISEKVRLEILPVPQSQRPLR

| Binder | pKd |
| --- | --- |
| LPHGHSTTRV [NLGN4X, Q8N0W4] | below the threshold |
| VRNLPESEEL [MYOZ3, Q8TDC0] | below the threshold |

target: GRIP2_7, Q9C0E4; test: holdup assay; design: key: below the threshold = too weak to quantify, mostly under pKd 3.1 to 4; conditions: plain residues with an end cap or a label only (N-terminal biotin on a linker: ado-ado)
Sequence (Q9C0E4 934-1023): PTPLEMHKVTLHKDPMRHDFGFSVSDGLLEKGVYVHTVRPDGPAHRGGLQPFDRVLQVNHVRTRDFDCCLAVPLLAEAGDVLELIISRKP

| Binder | pKd |
| --- | --- |
| LPHGHSTTRV [NLGN4X, Q8N0W4] | below the threshold |
| VRNLPESEEL [MYOZ3, Q8TDC0] | below the threshold |

target: HTRA2, O43464; test: holdup assay; design: key: below the threshold = too weak to quantify, mostly under pKd 3.1 to 4; conditions: plain residues with an end cap or a label only (N-terminal biotin on a linker: ado-ado)
Sequence (O43464 355-458): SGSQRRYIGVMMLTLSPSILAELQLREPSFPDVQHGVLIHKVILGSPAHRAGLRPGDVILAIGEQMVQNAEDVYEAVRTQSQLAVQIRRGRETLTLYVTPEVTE

| Binder | pKd |
| --- | --- |
| LPHGHSTTRV [NLGN4X, Q8N0W4] | below the threshold |
| VRNLPESEEL [MYOZ3, Q8TDC0] | below the threshold |

target: LAP2, Q96RT1; test: holdup assay; design: key: below the threshold = too weak to quantify, mostly under pKd 3.1 to 4; conditions: plain residues with an end cap or a label only (N-terminal biotin on a linker: ado-ado)
Sequence (Q96RT1 other isoform, or with tags, fused parts or gaps): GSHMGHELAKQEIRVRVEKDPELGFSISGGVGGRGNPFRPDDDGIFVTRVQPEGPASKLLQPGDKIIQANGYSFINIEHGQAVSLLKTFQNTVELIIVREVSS

| Binder | pKd |
| --- | --- |
| LPHGHSTTRV [NLGN4X, Q8N0W4] | 3.67 |
| VRNLPESEEL [MYOZ3, Q8TDC0] | below the threshold |

target: T7, LIN7C, Q9NUP9; test: holdup assay; design: key: below the threshold = too weak to quantify, mostly under pKd 3.1 to 4; conditions: plain residues with an end cap or a label only (N-terminal biotin on a linker: ado-ado)

| Binder | pKd |
| --- | --- |
| LPHGHSTTRV [NLGN4X, Q8N0W4] | below the threshold |
| VRNLPESEEL [MYOZ3, Q8TDC0] | below the threshold |

target: MAGI2_2, Q86UL8; test: holdup assay; design: key: below the threshold = too weak to quantify, mostly under pKd 3.1 to 4; conditions: plain residues with an end cap or a label only (N-terminal biotin on a linker: ado-ado)
Sequence (Q86UL8 410-522): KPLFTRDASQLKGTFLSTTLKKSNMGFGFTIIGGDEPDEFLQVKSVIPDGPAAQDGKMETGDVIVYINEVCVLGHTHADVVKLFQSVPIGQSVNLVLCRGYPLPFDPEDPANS

| Binder | pKd |
| --- | --- |
| LPHGHSTTRV [NLGN4X, Q8N0W4] | 4.95 |
| VRNLPESEEL [MYOZ3, Q8TDC0] | below the threshold |

target: MAGI2_4, Q86UL8; test: holdup assay; design: key: below the threshold = too weak to quantify, mostly under pKd 3.1 to 4; conditions: plain residues with an end cap or a label only (N-terminal biotin on a linker: ado-ado)
Sequence (Q86UL8 772-865): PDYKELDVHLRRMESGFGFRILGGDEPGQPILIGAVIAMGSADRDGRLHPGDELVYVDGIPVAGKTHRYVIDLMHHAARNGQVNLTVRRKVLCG

| Binder | pKd |
| --- | --- |
| LPHGHSTTRV [NLGN4X, Q8N0W4] | 3.91 |
| VRNLPESEEL [MYOZ3, Q8TDC0] | below the threshold |

target: T8, MPP7, Q5T2T1; test: holdup assay; design: key: below the threshold = too weak to quantify, mostly under pKd 3.1 to 4; conditions: plain residues with an end cap or a label only (N-terminal biotin on a linker: ado-ado)

| Binder | pKd |
| --- | --- |
| LPHGHSTTRV [NLGN4X, Q8N0W4] | below the threshold |
| VRNLPESEEL [MYOZ3, Q8TDC0] | below the threshold |

target: PDZRN4_1, Q6ZMN7; test: holdup assay; design: key: below the threshold = too weak to quantify, mostly under pKd 3.1 to 4; conditions: plain residues with an end cap or a label only (N-terminal biotin on a linker: ado-ado)
Sequence (Q6ZMN7 213-318): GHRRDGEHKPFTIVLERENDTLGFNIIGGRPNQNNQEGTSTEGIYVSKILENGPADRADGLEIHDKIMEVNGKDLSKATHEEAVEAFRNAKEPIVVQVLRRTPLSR

| Binder | pKd |
| --- | --- |
| LPHGHSTTRV [NLGN4X, Q8N0W4] | below the threshold |
| VRNLPESEEL [MYOZ3, Q8TDC0] | below the threshold |

target: SCRIB_1, Q14160; test: holdup assay; design: key: below the threshold = too weak to quantify, mostly under pKd 3.1 to 4; conditions: plain residues with an end cap or a label only (N-terminal biotin on a linker: ado-ado)
Sequence (Q14160 718-814): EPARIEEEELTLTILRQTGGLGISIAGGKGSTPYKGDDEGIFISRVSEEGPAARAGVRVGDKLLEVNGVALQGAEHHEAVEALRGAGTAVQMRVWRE

| Binder | pKd |
| --- | --- |
| LPHGHSTTRV [NLGN4X, Q8N0W4] | below the threshold |
| VRNLPESEEL [MYOZ3, Q8TDC0] | below the threshold |

target: SCRIB_2, Q14160; test: holdup assay; design: key: below the threshold = too weak to quantify, mostly under pKd 3.1 to 4; conditions: plain residues with an end cap or a label only (N-terminal biotin on a linker: ado-ado)
Sequence (Q14160 857-960): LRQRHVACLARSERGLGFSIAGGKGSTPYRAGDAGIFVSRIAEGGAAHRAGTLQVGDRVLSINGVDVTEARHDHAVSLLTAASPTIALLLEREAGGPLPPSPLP

| Binder | pKd |
| --- | --- |
| LPHGHSTTRV [NLGN4X, Q8N0W4] | below the threshold |
| VRNLPESEEL [MYOZ3, Q8TDC0] | below the threshold |

target: SNX27, Q96L92; test: holdup assay; design: key: below the threshold = too weak to quantify, mostly under pKd 3.1 to 4; conditions: plain residues with an end cap or a label only (N-terminal biotin on a linker: ado-ado)

| Binder | pKd |
| --- | --- |
| LPHGHSTTRV [NLGN4X, Q8N0W4] | 5.18 |
| VRNLPESEEL [MYOZ3, Q8TDC0] | 3.71 |

target: T9, SYNJ2BP, P57105; test: holdup assay; design: key: below the threshold = too weak to quantify, mostly under pKd 3.1 to 4; conditions: plain residues with an end cap or a label only (N-terminal biotin on a linker: ado-ado)

| Binder | pKd |
| --- | --- |
| LPHGHSTTRV [NLGN4X, Q8N0W4] | 3.9 |
| VRNLPESEEL [MYOZ3, Q8TDC0] | below the threshold |

target: TJP2_1, Q9UDY2; test: holdup assay; design: key: below the threshold = too weak to quantify, mostly under pKd 3.1 to 4; conditions: plain residues with an end cap or a label only (N-terminal biotin on a linker: ado-ado)
Sequence (Q9UDY2 24-128): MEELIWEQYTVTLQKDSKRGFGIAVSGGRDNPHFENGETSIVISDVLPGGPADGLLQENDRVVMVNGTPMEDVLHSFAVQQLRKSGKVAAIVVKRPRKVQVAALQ

| Binder | pKd |
| --- | --- |
| LPHGHSTTRV [NLGN4X, Q8N0W4] | 4.04 |
| VRNLPESEEL [MYOZ3, Q8TDC0] | below the threshold |

target: T10, TJP3_3, O95049; test: holdup assay; design: key: below the threshold = too weak to quantify, mostly under pKd 3.1 to 4; conditions: plain residues with an end cap or a label only (N-terminal biotin on a linker: ado-ado)

| Binder | pKd |
| --- | --- |
| LPHGHSTTRV [NLGN4X, Q8N0W4] | below the threshold |
| VRNLPESEEL [MYOZ3, Q8TDC0] | below the threshold |
